The values that follow come from paper doi:10.1101/2025.04.17.649292.

The target in the test is poly-L-proline (PLP) coupled to Sepharose 4B. Nature of the test: affinity chromatography on poly-L-proline Sepharose.

The substance “GST-δLdPfn (LdPfn with amino acids 110 to 128 deleted, N-terminal GST tag) (natural protein)” gave a reduction of binding to PLP relative to GST-LdPfn of 30%.
